# Experimental data from patent US20120232127A1, “REGULATION OF NEUROTRANSMITTER RELEASE THROUGH ANION CHANNELS” (KOREA INSTITUTE OF SCIENCE AND TECHNOLOGY, priority 2008, published 2012).
# T1: mBest1 (Mus musculus, UniProt O88870)
# T1 sequence (O88870 1-551): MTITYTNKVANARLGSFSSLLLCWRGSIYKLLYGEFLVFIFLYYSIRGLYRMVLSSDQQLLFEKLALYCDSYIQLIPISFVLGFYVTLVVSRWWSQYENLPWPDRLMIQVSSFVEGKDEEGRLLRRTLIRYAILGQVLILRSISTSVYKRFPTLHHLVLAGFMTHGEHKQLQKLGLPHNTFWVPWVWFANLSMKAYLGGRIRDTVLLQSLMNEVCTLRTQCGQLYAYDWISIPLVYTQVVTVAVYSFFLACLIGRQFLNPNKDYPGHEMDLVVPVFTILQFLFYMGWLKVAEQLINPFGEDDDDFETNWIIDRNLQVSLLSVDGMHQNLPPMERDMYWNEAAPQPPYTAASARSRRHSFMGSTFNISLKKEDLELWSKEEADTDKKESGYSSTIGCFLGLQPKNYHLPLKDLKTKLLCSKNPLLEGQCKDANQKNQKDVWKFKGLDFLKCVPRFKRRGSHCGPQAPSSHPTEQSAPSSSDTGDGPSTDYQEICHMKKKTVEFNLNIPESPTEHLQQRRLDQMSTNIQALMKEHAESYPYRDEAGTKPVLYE
# B1: mBest1 shRNA: mBest1-specific short hairpin RNA, SEQ ID NO: 3 and 4 (lentiviral: SEQ ID NO: 30), nucleotides 563-582 of mBest1 (nucleic acid)
# chain 1: GATCCCCTTGCCAACTTGTCAATGAATTCAAGAGATTCATTGACAAGTTGGCAATTTTTA
# chain 2: GGGAACGGTTGAACAGTTACTTAAGTTCTCTAAGTAACTGTTCAACCGTTAAAAATTCGA
# Experiments:
# mBest1 = target: T1, mBest1; assay: Whole cell patch clamp of mBest1-expressing HEK293T cells; format: cell-based; set-up: the full-length mBest1 was cloned from both astrocyte and testis cDNAs and transiently expressed in HEK293T cells; expressed in transfected cells; host or cells: HEK293T cells (ATCC); conditions: HEK293T cells transfected with mBest1 cDNA
# Protocol: In order to express mBest1 in mammalian cells, an mBest1 full-length fragment from pGEM-T easy plasmid (6.65 kb, Promega) was subcloned into pcDNA 3.1 (Invitrogen) by HindIII site and NotI site. The plasmid constructs were transfected into HEK293T cells (ATCC) using Effectene transfection reagent (Qiagen). To carry out whole cell patch clamp recordings, 1.5˜2 μg of plasmid, which was obtained by cloning mBest1 in cDNA extracted from mouse brain or cultured astrocytes, and then, subcloning into pcDNA3.1 plasmid (Invitrogen), plus pEGFP-N1 (Clontech) were used to transfect one 35 mm culture dish. One day after transfection, cells were replated onto glass coverslips for electrophysiological recording. Transfected cells were identified by EGFP fluorescence and used for patch clamp experiments within 24-36 hrs.
# Patch pipettes which have 3-6MΩ of resistance are filled with the standard intracellular solution. Current voltage curves were established by applying 100- or 200-ms-duration voltage ramps from −100 to +100 mV. The ramp duration was 10 s. […] The concentration of free [Ca^2+]i in the solution was determined (Kuruma, A. & Hartzell, H. C. Bimodal control of a Ca(^2+)-activated Cl(−) channel by difference Ca(^2+) signals. J Gen Physiol 115, 59-80 (2000), which is hereby incorporated by reference for all purposes as if fully set forth herein). […]
# [1] = system: intracellular Ca2+ in cultured astrocytes; assay: Ca2+ imaging of TFLLR-induced [Ca2+]i transient in cultured astrocytes; format: cell-based, mouse; conditions: shRNA expressing astrocytes, sniffer patch, TFLLR
# Protocol: The External solution was comprised of (in mM) 150 NaCl, 10 HEPES, 3 KCl, 2 CaCl2, 2 MgCl2, 5.5 glucose, at pH 7.3 (˜320 mOsm). For voltage clamp recordings, the internal solution contained 25 μg/ml gramicidin D and (in mM) 75 Cs2SO4, 10 NaCl, 0.1 CaCl2, and 10 HEPES, at pH 7.1 (˜310 mOsm). For current clamp recordings, the internal solution contained 25 μg/ml gramicidin D and (in mM) 75 K2SO4, 10 KCl, 0.1 CaCl2, and 10 HEPES, at pH 7.1 (˜310 mOsm). Pipette resistances ranged from 5 to 8 MΩ. For perforated patch clamp, it took 20 to 30 min to achieve acceptable perforation, with final series resistances ranging from 15 to 40 MΩ.
# To test if activation of PAR1 by its specific agonist (e.g., TFLLR) causes any change in membrane conductance that might contribute to glutamate release from astrocytes, the whole cell currents and intracellular Ca^2+ responses in cultured astrocytes under gramicidin-D perforated patch configuration were simultaneously recorded (FIG. 1a). This technique minimized dialysis of intracellular ions.
molecule,measurement,setting,value
B1,knock-down of mBest1 channel,mBest1,specific and efficient knock-down
same,increase in astrocytic intracellular Ca2+,[1],unaffected
